Experiments:
Assay type in all cases: biochemical, Flavonifractor plautii
[1] = substrate: CC(=O)N[C@H]1[C@H](Oc2ccc3c(C)cc(=O)oc3c2)O[C@H](CO)[C@@H](O[C@@H]2O[C@H](CO)[C@H](O)[C@H](O[C@H]3O[C@H](CO)[C@H](O)[C@H](O)[C@H]3NC(C)=O)[C@H]2O[C@@H]2O[C@@H](C)[C@@H](O)[C@@H](O)[C@@H]2O)[C@@H]1O; assay: Cleavage of A antigen Type2tetra-MU by FpGalNAcDeAc_D1min WT; conditions: other: WT, pH 7.4, 37° C.
Description: kcat/KM parameter were determined for A antigen subtype 1/2/4tetra-MU at pH 7.4 at 37° C. Reactions (total volume of 100 μL) were performed in black 96-plate wells and as coupled assays in 100 mM NaH2PO4 (pH 7.4) with 12 nM FpGalNAcDeacetylase 0.1 mg/mL SpHex, BgaC (BgaA for subtype II), AfcA, at varying concentrations of substrate (25 μM, 20 μM, 15 μM, 10 μM, 7.5 μM, 5 μM). The reactions were run as a series of four with controls (no FpGalNAcDeacetylase) as duplicates. The fluorescence signal (365/435 nm) resulting from MU release by hydrolysis was monitored on a Synergy H1™ plate reader (BioTek™) and converted to concentration using MU standard concentration curves determined under identical reaction conditions. Initial rates (μM/s) were determined and plotted in Grafit™ 7.0 to determine the kcat/KM (s^−1*mM^−1) parameters.
Based on structural information (not shown) and sequence alignment (not shown) FpGalNAcDeAc_D1min and FpGalNase_truncA were mutated using the QuickChange™ protocol (Zhang 2004), utilizing the primers noted in TABLE B. The mutants were purified via NiNTA and HIC columns as described above. The structural integrity of all mutants was checked via CD spectroscopy; all tested enzymes were structurally similar to their wild-type. […]

[2] = substrate: CC(=O)N[C@H]1[C@@H](O[C@H]2[C@@H](O)[C@@H](CO)O[C@@H](O[C@H]3[C@H](O)[C@@H](CO)O[C@@H](O[C@H]4[C@@H](O)[C@@H](CO)O[C@@H](Oc5ccc6c(C)cc(=O)oc6c5)[C@@H]4O)[C@@H]3NC(C)=O)[C@@H]2O[C@@H]2O[C@@H](C)[C@@H](O)[C@@H](O)[C@@H]2O)O[C@H](CO)[C@H](O)[C@@H]1O; assay: Kinetic parameters of FpGalNAcDeAc_D1+2 (coupled fluorescence assay, MU release); conditions: other: 100 mM NaH2PO4, pH 7.4, 37° C.
Description: (§1) All kinetic assays utilizing 4-methylumbelliferone as leaving group were performed through measurement of fluorescence. To avoid measurement errors based on the inner filter effect (Palmier 2007) standard curves were used to validate the linear range of the fluorophore.
(§2) Michaelis-Menten parameters were determined for A antigen subtype 1penta-MU in 100 mM NaH2PO4, pH 7.4 at 37° C. using the coupled assays described previously (Kwan 2015). The assay was modified to allow detection of cleavage of the subtype 1 (and later 4), by use of BgaC (Jeong 2009) instead of BgaA (Singh 2014) as β-galactosidase. In addition, since A antigen subtype 1penta-MU contains an additional galactose, the concentration of BgaC was increased to 0.2 mg/mL to compensate for its need to cleave both the Gal-β-1,3-B-GlcNAc-β-1,3-Gal-β-MU and Gal-β-MU. Further, FpGalactosaminidase was included to allow the cleavage of the galactosamine-containing intermediate. Reaction setup in 100 μl was 3 nM FpGalNacDeacetylase (4.52 nM FpGalNacDeAc_D1ext, 3.55 nM FpGalNacDeAc_D1+2) and 0.01 mg/mL FpGalactosaminidase, 0.1 mg/mL SpHex, AfcA, 0.2 mg/mL BgaC and varying concentrations of substrate (5 μM-2.5 mM). The reactions were run as a series of four with controls (no FpGalNacDeacetylase) as duplicates. The fluorescence signal (365/435 nm) resulting from MU release by hydrolysis was monitored on a Synergy H1™ plate reader (BioTek™) and converted to concentration using MU standard concentration curves determined under identical reaction conditions. Initial rates (μM/s) were determined and plotted in Grafit 7.0 to determine the kinetic parameters.

[3] = substrate: CC(=O)N[C@H]1[C@@H](O[C@H]2[C@@H](O)[C@@H](CO)O[C@@H](O[C@H]3[C@H](O)[C@@H](CO)O[C@@H](O[C@H]4[C@@H](O)[C@@H](CO)O[C@@H](Oc5ccc6c(C)cc(=O)oc6c5)[C@@H]4O)[C@@H]3NC(C)=O)[C@@H]2O[C@@H]2O[C@@H](C)[C@@H](O)[C@@H](O)[C@@H]2O)O[C@H](CO)[C@H](O)[C@@H]1O; assay: Kinetic parameters of FpGalNAcDeAc_D1ext (coupled fluorescence assay, MU release); conditions: other: 100 mM NaH2PO4, pH 7.4, 37° C.
Description: as §1, §2

[4] = substrate: CC(=O)N[C@H]1[C@H](O[C@H]2[C@@H](O)[C@@H](CO)O[C@@H](Oc3ccc4c(C)cc(=O)oc4c3)[C@@H]2O)O[C@H](CO)[C@@H](O)[C@@H]1O[C@@H]1O[C@H](CO)[C@H](O)[C@H](O[C@H]2O[C@H](CO)[C@H](O)[C@H](O)[C@H]2N)[C@H]1O[C@@H]1O[C@@H](C)[C@@H](O)[C@@H](O)[C@@H]1O; assay: Kinetic parameters of FpGalNase_truncA (coupled fluorescence assay, MU release); conditions: other: 100 mM NaH2PO4, pH 7.4, 37° C.
Description: as §1
Michaelis-Menten parameter was determined for GalN antigen subtype 1penta-MU and A antigen subtype 1penta-MU in 100 mM NaH2PO4, pH 7.4 at 37° C. Reaction was performed in 100 μl with 3.4 nM FpGalactosaminidase (5.31 nM FpGalNase_truncA) and 0.1 mg/mL SpHex, AfcA, 0.2 mg/mL BgaC and varying concentrations of substrate (5 μM-2 mM). The reactions were run as a series of four with controls (no FpGalactosaminidase) as duplicates. The fluorescence signal (365/435 nm) resulting from MU release by hydrolysis was monitored by Synergy H1™ plate reader [BioTek™] and converted to concentration using MU standard concentration curves determined under identical reaction conditions. Initial rates (μM/s) were determined and plotted in Grafit 7.0™ to determine the kinetic parameters.

B1: Flavonifractor plautii GalNAcDeacetylase FpGalNAcDeAc_D1min, WT (Flavonifractor plautii) (protein)
chain: ADSSESALNKAPGYQDFPAYYSDSAHADDQVTHPDVVVLEEPWNGYRYWAVYTPNVMRISIYENPSIVASSDGVHWVEPEGLSNPIEPQPPSTRYHNCDADMVYNAEYDAMMAYWNWADDQGGGVGAEVRLRISYDGVHWGVPVTYDEMTRVWSKPTSDAERQVADGEDDFITAIASPDRYDMLSPTIVYDDFRDVFILWANNTGDVGYQNGQANFVEMRYSDDGITWGEPVRVNGFLGLDENGQQLAPWHQDVQYVPDLKEFVCISQCFAGRNPDGSVLHLTTSKDGVNWEQVGTKPLLSPGPDGSWDDFQIYRSSFYYEPGSSAGDGTMRVWYSALQKDTNNKMVADSSGNLTIQAKSEDDRIWRIGYAENSFVEMMRVLLDDPGYTTPALVSGNSLMLSAETTSLPTGDVMKLETSFAPVDTSDQVVKYTSSDPDVATVDEFGTITGVSVGSARIMAETREGLSDDLEIAVVENPYTLIPQSNMTATATSVYGGTTEGPASNVLDGNVRTIWHTNYAPKDELPQSITVSFDQPYTVGRFVYTPRQNGTNGIISEYELYAIHQDGSKDLVASGSDWALDAKDKTVSFAPVEAVGLELKAIAGAGGFGTAAELNVYAYGPIEPAPVYVPVDDRDASLVFTGAWNSDSNGSFYEGTARYTNEIGASVEFTFVGTAIRWYGQNDVNFGAAEVYVDGVLAGEVNVYGPAAAQQLLFEADGLAYGKHTIRIVCVSPVVDFDYFSYVGE
Question: B1 was tested. Which kcat/Km [1] did it give?
Answer: 8210 ± 2070 M⁻¹ s⁻¹

B2: Flavonifractor plautii GalNAcDeacetylase (FpGalNAcDeAc) truncation _D1 + 2 (Flavonifractor plautii) (protein)
chain: B1 chain
Question: B2 was tested. Which Km [2] did it give?
Answer: 265 ± 43 µM

Question: And the kcat [2]?
Answer: 9.99 s⁻¹

Question: And the kcat/Km [2]?
Answer: 37590 M⁻¹ s⁻¹

B3: Flavonifractor plautii GalNAcDeacetylase (FpGalNAcDeAc) truncation _D1ext (Flavonifractor plautii) (protein)
chain: B1 chain
Question: B3 was tested. Which Km [3] did it give?
Answer: 212 ± 37 µM

Question: And the kcat [3]?
Answer: 5.37 s⁻¹

Question: And the kcat/Km [3]?
Answer: 25230 M⁻¹ s⁻¹

B4: Flavonifractor plautii Galactosaminidase (FpGalNase) truncation _truncA (Flavonifractor plautii) (protein)
chain: AAPATDTGNAGLIAEGDYAIAGNGVRVTYDADGQTITLYRTEGSGLIQMSKPSPLGGPVIGGQEVQDFSHISCDVEQSTSGVMGSGQRMTITSQSMSTGLIRTYVLETSDIEEGVVYTATSYEAGASDVEVSWFIGSVYELYGAEDRIWSYNGGGEGPMHYYDTLQKIDLTDSGKFSRENKQDDTAASIPVSDIYIADGGITVGDASATRREVHTPVQETSDSAQVSIGWPGKVIAAGSVIEIGESFAVVHPGDYYNGLRGYKNAMDHLGVIMPAPGDIPDSSYDLRWESWGWGFNWTIDLIIGKLDELQAAGVKQITLDDGWYTNAGDWALNPEKFPNGASDALRLTDAIHEHGMTALLWWRPCDGGIDSILYQQHPEYFVMDADGRPARLPTPGGGTNPSLGYALCPMADGAIASQVDFVNRAMNDWGFDGFKGDYVWSMPECYNPAHNHASPEESTEKQSEIYRVSYEAMVANDPNVFNLLCNCGTPQDYYSLPYMTQIATADPTSVDQTRRRVKAYKALMGDYFPVTADHNNIWYPSAVGTGSVLIEKRDLSGTAKEEYEKWLGIADTVQLQKGRFIGDLYSYGFDPYETYVVEKDGVMYYAFYKDGSKYSPTGYPDIELKGLDPNKMYRIVDYVNDRVVATNLMGDNAVFNTRFSDYLLVKAVEISEPDPEPVDPDYGFTSVDDRDEALIYTGTWHDDNNASFSEGTARYTNSTDASVVFSFTGTSIRWYGQRDTNFGTAEVYLDDELKTTVDANGAAEAGVCLFEALDLPAAEHTIKIVCKSGVIDIDRFAYEAATLEPIYEKVDALSDRITYVGNWEEYHNSEFYMGNAMRTDEAGAYAELTFRGTAVRLYAEMSFNFGTADVYLDGELVENIILYGQEATGQLMFERTGLEEGEHTIRLVQNAWNINLDYISYLPEQDQPTPPETTVTVDAMDAQLVYTGVWNDDYHDVFQEGTARYASSAGASVEFEFTGSEIRWYGQNDSNFGVASVYIDNEFVQQVNVNGAAAVGKLLFQKADLPAGSHTIRIVCDTPVIDLDYLTYTTNA
Question: For B4, which Km [4] is on record?
Answer: 54.7 ± 3.1 µM

Question: And the kcat [4]?
Answer: 1.86 s⁻¹

Question: And the kcat/Km [4]?
Answer: 34080 M⁻¹ s⁻¹
